Experimental findings from article PMC10798138 (Journal of inorganic biochemistry, 2023) are described below.

Residue numbers refer to the chain shown, from its start. Numbers in names are those of the source.

Data set [1] concerns the molecule itself. Description: SEC. (In general: Size exclusion chromatography separates by hydrodynamic size, large species first.)
The target in data set [2] is T1, bovine Adrenodoxin reductase (bovine, UniProt P08165 33-492).
T1 sequence: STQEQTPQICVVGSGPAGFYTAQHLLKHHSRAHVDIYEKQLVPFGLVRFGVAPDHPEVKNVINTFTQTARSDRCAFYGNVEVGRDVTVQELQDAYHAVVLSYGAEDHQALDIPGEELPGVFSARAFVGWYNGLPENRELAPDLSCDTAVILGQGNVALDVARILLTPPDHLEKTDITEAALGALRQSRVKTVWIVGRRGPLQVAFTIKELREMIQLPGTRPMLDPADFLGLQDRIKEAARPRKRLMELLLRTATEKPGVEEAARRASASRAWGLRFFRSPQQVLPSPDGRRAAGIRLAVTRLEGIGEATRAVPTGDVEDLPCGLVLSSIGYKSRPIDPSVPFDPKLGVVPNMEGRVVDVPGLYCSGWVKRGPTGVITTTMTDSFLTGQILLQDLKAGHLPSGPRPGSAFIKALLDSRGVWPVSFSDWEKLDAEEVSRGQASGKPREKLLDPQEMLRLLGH
In words: NMR titration.

B1: full-length human Adrenodoxin with the L80V mutation (natural protein, UniProt P10109 62-184, looked up)
chain: SSEDKITVHFINRDGETLTTKGKVGDSLLDVVVENNLDIDGFGACEGTLACSTCHLIFEDHIYEKLDAITDEENDMLDVAYGLTDRSRLGCQICLTKSMDNMTVRVPETVADARQSIDVGKTS
In the case of B1, the binding result in data set [1] was “binds”.

B2: full-length human Adrenodoxin (Ferredoxin 1), hAdx (2–124) (natural protein, UniProt P10109 62-184, looked up)
chain: B1 chain with V79L
Turning to B2, the binding result in data set [2] is recorded as “binds”.
